In the nanobody polyreactivity screen of Harvey et al. (2022):

Assay: yeast display, Sf9 membrane polyspecificity reagent, FACS + sequencing; frameworks hold sequencing errors
Procedure, shortened: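 Sorting gates, low and high (top ~1%), were placed on anti-HA fluorescence to track expression and on streptavidin fluorescence to track reagent binding. A clone's polyreactivity label is taken from the gate it came out of. The reagent was 10% biotinylated, detergent-solubilized Sf9 membrane, applied for 1 hour at 4 °C to galactose-induced yeast display cells.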

Sequence	polyreactivity (PSR sort gate)
QVQLVESGGDLVQAGGSLRLSCAASGITFVYNAMGWYRQAPGKERELVAGITWSGSSTYYADSVKGRFTISRDNAKNTVYLQMNSLKPEDTAVYYCAAYLYDRTTRYTYYYWGQGTQVTVSS	high polyreactivity
QVQLVESGGGLVQAGGSLRLSCAASGSTFCGYAMGWYRQAPGKERELVAAITNGGSTYADSVKGRFTISRDNAKNTVYLQMNSLKPEDTAVYYCNTETGPSPVPVYDTEVDSWGQRTQVTVSS	low polyreactivity
QVQLVESGGGLVQAGGSLRLSCAASGITFKPNAMGWYRQAPGKERELVAALDTGGSTNYADSVKGRFTISRDNEKNTVYLQMNSLKPEDTEVYYCAAPYQDRDLHVSYSTYEGGYWGQGTQVTVSS	low polyreactivity
QVQLVESGGGLVHAGGSLRLSCAASGLTFAYNTMGWYRQAPGKEREFVASISSSGGNTYYADSVKGRFTISRDNAKNTVYVQMNSLKPEDTAVYFCAAKKKYHYVASYKRFEYWGQGTQVTVSS	low polyreactivity
QVQLVESGGGLVQAGGSLRLSCAASGSTFYSNAMGWYRQAPGKERELVAAISYSGGRTYYADSVKGRFTISRDNAKNTVFLQMNSLKPEDTAVYYCNKAYRRYIWHMDYWGQGTQVTVSS	high polyreactivity
QVQLVESGGGLVQAGGSLRLTCAASGSTFPVYAMGWSRQAPGKERELVASISSGADTIYADSVKGRFTISRDNAKNTVYLQMNSLKPEDTSVYYCAVYRPGLTYYDYDYWGQGTQVTVSS	low polyreactivity
QVQLQESGGGLVQAGGSLRLSCAASGSIFKGVDMGLYRQAPAKEREFVATIGEGGNTYYADSVKGRFTISRDNAKNTVYLQMNSLKPEDTAVYFYAVVLGTSYRYTYWGQGTQVTVSS	low polyreactivity
QFQLVESGGGLVQAGGSLRLSCAASGRIFYGYAMVWYRQAPGKERDLVAAISWRGGRTYYADSVKGRFTISRDNAKNTVYLQMNSLKPEDTAVYYCNKVFPPQGQLRNMYYWGQGTQVTVSS	high polyreactivity
QDQLVESWGGLVQAVGSLRLSCAASGSTFEDYGMGWNRQAPGKERQFVAAIRYSGSSKYADSVKGRFTISRDNAKNTVFLLMKSLIPEDTAVYYCAKYGVRVGFGYSSEYFGQGTQVTVSS	low polyreactivity
QVQLVESGGGLVQAGGSLRLSCAASGSTFFLYGMGWYRQAPGKERELVAAITWNGGSTYYADSVKGRFTISRDNAKNTVYLQMNSLKPEDTAVYYCAADYYGYFSTPYDYWGQGTQVTVSS	low polyreactivity
QVQLVESGGGLVQAGGSLRLSCAASGRIFSRYAMVWYRQAPGKERELVAAINKSGGSTYYADSVKGRFTISRDNAKNTVYLQMNSLKPEDTAVYYCNAVYYWYKGDYWGQGTQVTVSS	high polyreactivity
QVQLVESGRGLVQAGGSLRLSCAASGRTFYFYAMGWYRQAPGKEREFVAAITSSGVSTYYADSVKGRFTISRDNAKNTVYFQMISQKPEDSAVYYCAADDWDWENDYWGQGTQVTVSS	low polyreactivity
QVQLVESGVGLVQAVGSHRLSCAASGFTIINNDMGWYRQAPGKEREFVAAISDSDGTTYYADSVKGRFSISRDNAKNTVYLQMNSLKPEDTAVYYCAADVVPTWEDEYWGQGTQVTVSS	low polyreactivity
QVQLVESGGGLVQAGGSLRLSCAASGSIFSTYAMGWSRQAPGKERELVAAINRSGGSTTYADSVKGRCTISRDNAKNTVYLQMNSLKPEDTAVYYCAKAFRGHYWGQGTQVSVSS	high polyreactivity
QVQIEESGGGLVQAGRSLRLSCAASGFIFGSNAMGWYRQAPGKETELVAAISRSGGSTYYADSVKGRFTISRDYAKNTVYVQMNSLKPEDTAVYYGASYLYKTRYLTEYDYWGHGTQVTVSS	high polyreactivity
QVQLVESGGGLVQAGGSLRLSCAASGRIFWRNAMGWYRQAPGKERELVAAISSGGSTYYADSVKGRFTISRDNAKNTVYFQMNSLKPEDTAVYYCAARSSWRGVRYDHFERDYWGQGTQVTVSS	high polyreactivity
QVQLVESGGGLVQAGGSLRLSCAASGSTFGYYGMGWYRQAPGKERELVAAISTGGRTNYADSVKGRFTISRDNAKNTVYLQMNSLKPEVTAVYYCAADFLCTAYRPSWYRFDYWGQGTQVTVSS	low polyreactivity
QVQLVESGGGIVQAGGSLLLSCAASGSISFLYTMGWYRQAPGKERELVAAITGSTASTYYADSVKGRFTISRDNAKNTVYLQMNSLKPEDTAVYYCAAYWYAEGYWVSRDYWGQGTQVTVSS	low polyreactivity
QVQLVESGGGLVQAGGSLRLSCAASGRIFRYYAMGWYRQAPGKERELVAAINSGGSTKYADSVKGRFTISRDNAKNTVYLQMNSLTPEDTAVYYCNKDHAFSRYWYGGFDYWGQGTQVTVSS	high polyreactivity
QVQLVESGGGLVQAGGSLRLSCAASGLILDGYAMGWYRQAPGKERELVAAITRSGGRTYYADSVKGRFTISRDNAKNTVYLQMKSLKPEDPAVYYCAALGWSGRYRYDYWGQGTQVTVSS	high polyreactivity
QVQLVESGGGLVQAGGSLRLSCAASGRTFFDYTMGWYRPAPGKERELVAAITGGDGSTYYADSVKGRFTISRDNAKNTVYLQMNSLKPEDTAVYYCAASVWYNPMDYWGQVTQVTVSS	low polyreactivity
QVQLVESGGGLVQAGGSLRLSCAASGSTFGVNAMGWYRQAPGKERELVAVITRSGGSTYYADSVKGRFTISRDNAKNTVYLQMNSLKPEDTAVYYCAKSGVVDWGQGTQVTVSS	low polyreactivity

Sequence	polyreactivity (PSR sort gate)
QVQLVESGGGLVQAGGSLRLSCAASGRIFAYNARGWYRQAPGKERELVADISSGGNTYYADSVKGRFTISRDNAKNTVYLQMNSLKPEDTAVYYCAADIAWYTHYHRIFDYWGQGTQVTVSS	low polyreactivity
QVQLVESGGGLVQAGVSLRLSCAASGSIFFYNARGWYRQAPRKERELVAAITTRGGSTYYADSVKGRFTISRDNAQNYVYLQMNSLKPEDTAVSYCARSSRGKLDYWGQGTQVTVSS	low polyreactivity
QVHLVESGGGLVQAGGSLRLSCAASGGIFDYYAMGWYRQAPGKERELVATISRGGSTYYADSVKGRFTISRDNAKNTVYLQMNSLKPEDTAVYYCAARQTRYWYRAWFVEHDYWGQGTKVTVSS	high polyreactivity
QVQLVESGGGLDQAGGSLRLSCAASGRIFSRYTMGWYRQAPGKERELVAAISSGGGSNYADSVKGRFTISRDNAKNSVYLQMTSLNPEDTEVYYCNARSWLSRGYGYWGQGTQVTVSS	high polyreactivity
QFQLVESGGGLVQAGGSLRLSCAASGYTFGNYAMGWYRPAPGNVRVLVAGISWSGGSTYYADSVKGRFTISRDNAKNTVYLQMNSLKPEDTAVYYCATRVQGYHNGWYAYLGQGTQVTVSS	high polyreactivity
QVQLVESGGGLVQAGGSLRLSCAASGLIFYRYTMGWYRQAPGKERELVAAITSTGTSTYYADSVKGRFTISRDNAKNTVYLQMNSLKPEDTAVYYCAARYIARGKWDYDYWGQGTQVTVSS	high polyreactivity
QVQLVESGGGLVQAGGSLRLSCAASGFIFASYAMGWYRQAPGKERELVAAISYRGGTTYYADSVKGRFTISRDNAKNTVYLQMNSLKPEDTALYYCAADSPENRYNYWGQGTQVTVSS	high polyreactivity
QVQLVESGGGLVQAGGSLRISCAASGSICYYYGMGWYRQAPGKERELVAGISSRGGRTYYADSVKGRFTISRDNAKNTVYLQMNSLKPEDTAVYYGAADRYYYAYRYDPSGYWGQGTQVTVSS	low polyreactivity
QVQLVESGGGLVQAGGSLRLSCAASGRIFGYYAMGWYRQAPGKERELVADITESGTSTYYADSVKGRFTISRDNAKNTVYLHMNILKPEDTAVYYCAAGYWWRYALYGYWGQGTQVTVSS	low polyreactivity
QVQLVESGGGLVQAGGSLRLSCAASGFTFYTYAMGWYRQAPGKERELVAAINRSGGRTFYADSVKGRFTISRDNAKNTDYLQMNSLKPEDTAVYYCAADSRPYVGGMDYWGQGTQVTVSS	high polyreactivity
QVQLVESGGGLVQAGGSLRLSCAASGSIIYTYAMGWYRQAPGKVRELVAAITGSDNTNYADSVKGRFTISRDNAKNTVYLQMNSLNPEDTAVYYCAADFPWSTKSWHPDSGDSWGQGTQVTVSS	low polyreactivity
QVQLVESGGGLVQAGGSLRLSCAASGSTIGRYTMGWYRQAPGKERELVAAITGSGAGTYYADSVKGRFTISRDNAKNTVYLQMNRLKPEDTAVYYCNTVFRGGQFRYVRGVKYGYWGQGTQVTVSS	high polyreactivity
QVQLLESGGMVQAGGLRLSCAASGSVSYQEAMGWYRQAPGKERELVATISFGANTNYADSVKGRFTISRDNAKNTVYLQMNSLKPEDTAVYYCAAESLFYDYYGYWGQGTQVNVSS	low polyreactivity
QVQLVESGGGLVQAGGSLRISCDASGRTFYYYAMGWYRQAPGKERELVASITITDSTNYADSVKGRFTISRDNAKNTVYLQMNSLKPEDTAVYYCAKRGWGTSFYLSDYWGQGTEVTVSS	low polyreactivity
QVQLVESGGGLVQAGGSLRLSCAASGRIFAGYAMGWYRQAPGKERELVASIRSSGSTYYADSVKGRFTISRDNAKNTVYLQMNSLKPEDTAVYYCNKYVPYRHLWDYGYWGQGTQVTVSS	high polyreactivity
QVQLVESGGGLVQAGGSLRLICAASGSTFGTYAMGWYRQAPGKERELVAAISWSGGSTYYADSVKGRFTISRDNAKNTVYLQMNSLQPEDTAVYWGQGTQVTVSS	low polyreactivity
QFQLVESGGGLVQAGGSLRLSCAASGRIFLSYAMGWYRQAPGKERELVAAITLSGGSTYYADSVKGRFTISRDNAKNTVSLQMNSLKPEVTGVYYCAADAWFSLRYAPRSYAYGYWGQGTQVTVSS	low polyreactivity
QVQLVESGGGLVQAGGSLRLSCDASGSIFRLYAMGWYRQAPGKERELVARITRRCGDTYADSVKGRFTISRDNAKNTVYLQMNSLKREDTAVYYCAADGYHRYPGSSGYGYWGQGTQVTVSS	high polyreactivity
QVQLVESGGGLVQAGGSLRLSCAASGITLGYSAMGGYRQAPGKEREFVAGITTSGGTTYYADSVKGRFTISRDNAKNTVYLQMNSLKPEDTAVYYCAVYGGVKRGSFYYWGQGTQVTVSS	low polyreactivity
QVQLVESGGGLVQAGGSLRLSCAASGRIFYIYTMGWYRPAPGKEREFVAGINWNGGSTYYADSVKGRFTISRDNAKNTVYLQMNSLKPEDTAVYYCNADQYWDRYYYWGQGTQVTVSS	low polyreactivity
QVQLVESGGGLVQAGGSLRLSCAASGIIFYRYAMVWYRQAPGKERELVAAITWSGVSTSYADSVKGRFTISRDNAMNTVYLQMTSLKPEDTAVYYCNKDQGTLYGDMDSWGQGTQVTVSS	low polyreactivity
